Reference: US20120028901A1

B1: JBT0806 (peptide)
chain: FQSKGNVFVAGYFARLRAKL
B2: JBT0720 (peptide)
chain: FQSKGNVFVTGYFARLRAKL
B3: JBT0590 (peptide)
chain: FQSKKNDFVFGYFERLRAKL
B4: JBT0570 (peptide)
chain: FFSKKNVFVFGYFERLRAKL
B5: JBT0583 (peptide)
chain: FQSKKNVFVFGYFERLRAFL
B6: JBT0588 (peptide)
chain: FQSDKNVFVFGYFERLRAKL
B7: JBT0487 (peptide)
chain: FQSKNNVFVHGYFERLRAKL
B8: JBT0571 (peptide)
chain: FQFKKNVFVFGYFERLRAKL
B9: JBT0582 (peptide)
chain: FQSKKNVFVFGYFERLRFKL
B10: JBT0594 (peptide)
chain: FQSKKNVFVFGDFERLRAKL
B11: JBT0591 (peptide)
chain: FQSKKNVDVFGYFERLRAKL
B12: JBT0579 (peptide)
chain: FQSKKNVFVFGYFEFLRAKL
B13: JBT0581 (peptide)
chain: FQSKKNVFVFGYFERLFAKL
B14: JBT0573 (peptide)
chain: FQSKFNVFVFGYFERLRAKL
B15: JBT0576 (peptide)
chain: FQSKKNVFVFFYFERLRAKL
B16: JBT0586 (peptide)
chain: FDSKKNVFVFGYFERLRAKL
B17: JBT0577 (peptide)
chain: FQSKKNVFVFGFFERLRAKL
B18: JBT0572 (peptide)
chain: FQSFKNVFVFGYFERLRAKL
B19: JBT0516 (peptide)
chain: FESKGNVFVFGYFERLRAKL
B20: JBT0574 (peptide)
chain: FQSKKFVFVFGYFERLRAKL
B21: JBT0580 (peptide)
chain: FQSKKNVFVFGYFERFRAKL
B22: JBT0497 (peptide)
chain: AQSKGNVFVFGYFERLRAKL
B23: JBT0592 (peptide)
chain: FQSKKNVFDFGYFERLRAKL

These binders were tested against T1, TFPI (human TFPI-1α) as coated or added in the ELISA, microarray and enzymatic assays (human), P10646 (assay: not given). Conditions: modification not given.
Binder B1 has an EC50 of 0.13 µM.

Molecular target: T1, TFPI (human TFPI-1α) as coated or added …
Assay: not given
Conditions: modification not given
Remark: another data set of the same source
Binder B2 has an EC50 of 0.22 µM.

Molecular target: T1, TFPI (human TFPI-1α) as coated or added …
Assay: not given
Conditions: modification not given
Remark: another data set of the same source
B1 showed an EC50 of 2.42 µM.

The binders below were run against T1, TFPI (human TFPI-1α) as coated or added … (assay: competition). Conditions: modification not given.
For B3, the IC50 was > 5 µM. For B4, the IC50 was > 5 µM. For B5, the IC50 was > 5 µM. With B6 the IC50 was > 5 µM. B7 showed an IC50 of 0.04 µM. B8 was tested, and the IC50 was > 5 µM. For B9, the IC50 was > 5 µM. B10 was tested, and the IC50 was > 5 µM. B11 was tested, and the IC50 was > 5 µM. With B12 the IC50 was > 5 µM. B13 was tested, and the IC50 was > 5 µM. For B14, the IC50 was 1.37 µM. In the case of B15, the IC50 is reported as > 1.67 µM. In the case of B16, the IC50 is reported as > 1.67 µM. B17 was tested, and the IC50 was > 5 µM. B18 was tested, and the IC50 was > 5 µM. In the case of B19, the IC50 is reported as 1.19 µM. For B20, the IC50 was > 5 µM. With B21 the IC50 was > 5 µM. With B22 the IC50 was 0.1 µM. In the case of B23, the IC50 is reported as > 5 µM.
